Source: paper PMC5228624

Molecular target: T1, arginine vasopressin (AVP) (UniProt P01185 20-28)
T1 chain: CYFQNCPRG
Test: bead capture, thermal elution, MALDI-TOF MS

## ACCTGGGGGAGTATTGCGGAGGAAGGTAAAAAAA (ssDNA) [ATP-specific aptamer (control)]
  binding result: no binding
